Key:
[1] = target: the molecule itself; experiment: SEC; Superdex 75 Increase 10/300 GL, 20 mM Tris, 150 mM NaCl, pH 7.6; no reducing agent (WT also with MV radicals); oligomer peak at 9.2 mL, dimer peak at 10.9 mL
[2] = target: the molecule itself; experiment: SEC; as a1, protein treated with the reducing agent DTT
crystal structure = target: the molecule itself; experiment: crystal structure

B1: CF ScdA S77C (enzyme)
chain: not shown
notes: not shown: His6, N-terminal, kept
With B1 the “stoichiometry N” value [1] was 2.

B2: wild-type (WT) ScdA, S. aureus, N-terminal His6 tag (enzyme)
chain: not shown
notes: also called as-isolated WT; reduced WT; not shown: His6, N-terminal, kept
For B2, the “stoichiometry N” value [2] was 2.

B3: cysteine-free (CF) ScdA variant (C30A/C31A/C191A), N-terminal His6 tag (enzyme)
chain: not shown
notes: also called CF variant; not shown: His6, N-terminal, kept
With B3 the “stoichiometry N” value [1] was 2.

B4: tag-free variant of CF ScdA (tagless ScdA) (enzyme)
chain: not shown
notes: also called CF ScdA (crystal); source: E. coli, purified (Q Sepharose, SEC)
For B4, the “stoichiometry N” value (crystal structure) was 2.

B5: ScdA S77E variant (wild-type cysteines) (enzyme)
chain: not shown
notes: also called S77E mutant; not shown: His6, N-terminal, kept
B5: binds [1].

Source: publication PMC12412097, “Structure and Nitrite Reductase Activity of the Di-iron Protein ScdA in Staphylococcus aureus” (Journal of the American Chemical Society, 2025)
